Consider 30 molecules from patent publication US20260242478A1 (published 2026).

Where no end group is shown, it is not given here.

Assay [1] deals with T1, Anti-PSMA Fab (SEQ ID NOs: 19, 20).
T1 construct: Biotinylated and captured on neutravidin coated plates in the phage ELISA; also called 006 PSMA Fab
The experiment in a line: phage binding ELISA; biotinylated PSMA Fab on neutravidin plate, clonal phage supernatant, anti-M13 HRP detection.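 Note: wells were preincubated with blocking buffer either containing PSMA antigen or without it before crude phage supernatant was added, briefly incubated, then washed prior to detection.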
Experimental: (§1) Clonal phage were harvested as crude supernatants and screened via standard ELISAs. […] Prior to the addition of clonal phage. wells were incubated with blocking buffer and PSMA antigen or blocking buffer alone. Without washing or aspirating, clonal phage supernatants were then added to the wells and incubated for a short time. Wells were then washed followed by detection of bound phage using a horse radish conjugated anti-M13 antibody.

Assay [2] shares this target. The assay can be described thus: phage binding ELISA; PSMA Fab on plate pre-incubated with PSMA antigen as competitor, anti-M13 HRP detection.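 Note: crude clonal phage supernatants added without washing to wells preincubated with PSMA in blocking buffer, compared with wells receiving blocking buffer only, then bound phage detected.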
Experimental: as §1
The target of assay [3] is T2, Anti-PSMA Fab (SEQ ID NOs: 19, 20) (biotinylated (site not stated)).
T2 construct: also called 006 PSMA Fab
The assay can be described thus: phage ELISA; biotinylated PSMA Fab on neutravidin plate, wells pre-incubated with PSMA antigen as competitor, anti-M13 HRP detection.

The target of assay [4] is T2, Anti-PSMA Fab (SEQ ID NOs: 19, 20). The assay can be described thus: phage ELISA; biotinylated PSMA Fab on neutravidin plate, clonal phage supernatant, anti-M13 HRP detection.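 Note: wells preincubated with PSMA antigen in blocking buffer or with blocking buffer only before clonal phage were added for a short incubation, then bound phage detected.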 Background: An ELISA detects its analyte on a solid surface through an enzyme-linked reagent.
Experimental: as §1
The target in assay [5] is T3, Anti-PSMA Fab (SEQ ID NOs: 19, 20).
T3 construct: also called 006 PSMA Fab
The assay can be described thus: phage binding ELISA; clonal phage supernatant on biotinylated PSMA Fab captured on neutravidin plate, wells pre-incubated with PSMA antigen (competitor: PSMA); anti-M13-HRP detection.
Experimental: as §1

For assay [6] the target is unchanged. The experiment in a line: phage binding ELISA; clonal phage supernatant on biotinylated PSMA Fab captured on neutravidin plate; anti-M13-HRP detection.
Experimental: as §1

Regarding GEIWCIPPWMCYAP [Phage-1955], the “Phage binding ELISA, Anti-PSMA Fab (SEQ ID NOs: 19, 20) signal” value in assay [1] is 1.92. In addition, the “Phage binding ELISA, Anti-PSMA Fab signal in the presence of PSMA” value (“Phage binding ELISA … of PSMA” for short) in assay [2] was determined as 0.0825.

B1: Phage-1927 (peptide)
peptide: WENWCTPAWMCSHM
notes: Clonal phage of the Peptide-180 library, tested as crude supernatant; not shown: fused to the pIII filament protein of the bacteriophage
As for B1, the “Phage binding ELISA … of PSMA” value in assay [3] amounted to 0.1. Besides, the “Phage binding ELISA, Anti-PSMA Fab (SEQ ID NOs: 19, 20) signal” value in assay [4] was 1.98.
In the case of GEKWCIPEWMCTTW [Phage-1941], the “Anti-PSMA Fab signal in the presence of PSMA” value in assay [5] turned out to be 0.135. The “Anti-PSMA Fab (SEQ ID NOs: 19, 20) signal” value in assay [6] is 1.95.
The like results for VEKLCRPSWMCEHM [Phage-1939] were, in that order, 0.0564 and 1.96.
The like results for DIKLCMPEWMCLGF [Phage-1949] were, in that order, 0.0792 and 1.93.

B2: Phage-1934 (peptide)
peptide: VSIWCRPAWMCESG
notes: as for B1
In the case of B2, in assay [3], the “Phage binding ELISA … of PSMA” value stood at 0.0809. The “Phage binding ELISA, Anti-PSMA Fab (SEQ ID NOs: 19, 20) signal” value in assay [4] was found to be 1.97.
For the molecule ARRSCVFRRGCVFM [Phage-1950], the “Anti-PSMA Fab signal in the presence of PSMA” value in assay [5] stood at 0.0701. Also, the “Anti-PSMA Fab (SEQ ID NOs: 19, 20) signal” value in assay [6] came out at 1.93.
Consider LEKWCIPTWMCELF [Phage-1943], for which the “Anti-PSMA Fab signal in the presence of PSMA” value in assay [5] amounted to 0.175. For the same molecule, the “Anti-PSMA Fab (SEQ ID NOs: 19, 20) signal” value in assay [6] turned out to be 1.94.
The like results for DGKWCIPPWMCQST [Phage-1944] were, in that order, 0.077 and 1.94.
The like results for TEMWCKPSWMCYGF [Phage-1946] were, in that order, 0.101 and 1.94.

B3: Phage-1929 (peptide)
peptide: AEKWCIPAWMCEAM
notes: as for B1
B3: in assay [3], the “Phage binding ELISA … of PSMA” value was determined as 0.0668. Further, in assay [4], the “Phage binding ELISA, Anti-PSMA Fab (SEQ ID NOs: 19, 20) signal” value worked out at 1.98.

B4: Phage-1935 (peptide)
peptide: VEKLCKPIWMCNWQ
notes: as for B1
In the case of B4, the “Phage binding ELISA … of PSMA” value in assay [3] came out at 0.0992. Besides, in assay [4], the “Phage binding ELISA, Anti-PSMA Fab (SEQ ID NOs: 19, 20) signal” value amounted to 1.96.

B5: Phage-1928 (peptide)
peptide: ELHLCIPRGMCKFR
notes: as for B1
In the case of B5, the “Phage binding ELISA … of PSMA” value in assay [3] worked out at 0.0668. Also, in assay [4], the “Phage binding ELISA, Anti-PSMA Fab (SEQ ID NOs: 19, 20) signal” value came to 1.98.
Take WPKWCTPPWMCFQD [Phage-1936]: the “Anti-PSMA Fab signal in the presence of PSMA” value in assay [5] came out at 0.148. Moreover, the “Anti-PSMA Fab (SEQ ID NOs: 19, 20) signal” value in assay [6] came out at 1.96.

B6: Phage-1932 (peptide)
peptide: DFKWCTPMWMCEHL
notes: as for B1
As to B6, in assay [3], the “Phage binding ELISA … of PSMA” value came out at 0.106. Further, the “Phage binding ELISA, Anti-PSMA Fab (SEQ ID NOs: 19, 20) signal” value in assay [4] stood at 1.97.
As for HEKWCIPEWMCVVT [Phage-1954], in assay [1], the “Phage binding ELISA, Anti-PSMA Fab (SEQ ID NOs: 19, 20) signal” value amounted to 1.92. In assay [2], the “Phage binding ELISA … of PSMA” value came out at 0.0642.
The like results for AEHWCIPSWMCAGF (cysteine pairing not given here; also: displayed as fusion to phage pIII) [Phage-1951] were, in that order, 1.93 and 0.104.

B7: Phage-1926 (peptide)
peptide: FAKWCTPEWMCVGF
notes: as for B1
On to B7, for which the “Phage binding ELISA … of PSMA” value in assay [3] was determined as 0.125. Further, the “Phage binding ELISA, Anti-PSMA Fab (SEQ ID NOs: 19, 20) signal” value in assay [4] stood at 1.99.
On to WINWCTPEWMCMGF [Phage-1947], for which, in assay [5], the “Anti-PSMA Fab signal in the presence of PSMA” value was 0.24. For the same molecule, in assay [6], the “Anti-PSMA Fab (SEQ ID NOs: 19, 20) signal” value came out at 1.94.

B8: Phage-1931 (peptide)
peptide: WDRLCTPAWMCTGF
notes: as for B1
Take B8: the “Phage binding ELISA … of PSMA” value in assay [3] was determined as 0.104. The “Phage binding ELISA, Anti-PSMA Fab (SEQ ID NOs: 19, 20) signal” value in assay [4] was 1.97.

B9: Phage-1933 (peptide)
peptide: VVQWCIPAWMCAAQ
modifications: cysteine pairing not given here; also: displayed as fusion to phage pIII
notes: as for B1
For the molecule B9, the “Phage binding ELISA … of PSMA” value in assay [3] was 0.0955. The “Phage binding ELISA, Anti-PSMA Fab (SEQ ID NOs: 19, 20) signal” value in assay [4] was found to be 1.97.
With WENWCTPRWMCEGF [Phage-1945], the “Anti-PSMA Fab signal in the presence of PSMA” value in assay [5] amounted to 0.173. Moreover, in assay [6], the “Anti-PSMA Fab (SEQ ID NOs: 19, 20) signal” value was found to be 1.94.
On the same counts, the results for MEKWCIPSWMCDVN [Phage-1938] are 0.0785 and 1.96.
MPKWCTPAWMCAHQ (cysteine pairing not given here; also: displayed as fusion to phage pIII) [Phage-1952]: the “Phage binding ELISA, Anti-PSMA Fab (SEQ ID NOs: 19, 20) signal” value in assay [1] is 1.93. Further, in assay [2], the “Phage binding ELISA … of PSMA” value worked out at 0.0835.

B10: Phage-1953 (peptide)
peptide: PVKWCIPTWMCAPV
modifications: cysteine pairing not given here; also: fused to phage pIII (clonal phage display)
Turning to B10, in assay [1], the “Phage binding ELISA, Anti-PSMA Fab (SEQ ID NOs: 19, 20) signal” value stood at 1.92. The “Phage binding ELISA … of PSMA” value in assay [2] worked out at 0.0978.
With FPKWCTPAWMCERS [Phage-1937], the “Anti-PSMA Fab signal in the presence of PSMA” value in assay [5] was determined as 0.0909. The “Anti-PSMA Fab (SEQ ID NOs: 19, 20) signal” value in assay [6] amounted to 1.96.
The like results for WENWCRPEWMCTGL [Phage-1940] were, in that order, 0.0907 and 1.95.
On the same counts, the results for VEKWCVPQWMCGQM [Phage-1942] are 0.0869 and 1.95.
The like results for MDNWCTPSWMCVGF [Phage-1948] were, in that order, 0.0794 and 1.93.

B11: Phage-1930 (peptide)
peptide: VQNWCIPAWMCQGM
notes: as for B1
As for B11, in assay [3], the “Phage binding ELISA … of PSMA” value came out at 0.0574. Further, the “Phage binding ELISA, Anti-PSMA Fab (SEQ ID NOs: 19, 20) signal” value in assay [4] turned out to be 1.98.
